T1: cynomolgus monkey IL-1β (cynomolgus monkey, UniProt P79182 117-268)
T1 construct: also called Cynomolgus IL-1β
T1 sequence (looked up): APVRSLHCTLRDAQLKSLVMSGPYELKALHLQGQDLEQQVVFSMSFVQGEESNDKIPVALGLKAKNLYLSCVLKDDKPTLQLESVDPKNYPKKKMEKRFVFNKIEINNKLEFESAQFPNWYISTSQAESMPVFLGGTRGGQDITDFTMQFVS


Columns and labels:
human IL-1β [1] = target: T2, human IL-1β (human, UniProt P01584 117-269); test: cell-based or functional assay
human IL-1β [2] = target: T2, human IL-1β; test: competition ELISA on coated human IL-1β against biotinylated Mu007, average of three experiments
Procedure: (§1) Wells of 96-well ELISA plates (Nunc-lmmuno plate, Cat # 439454, NalgeNunc) were coated with 100 μL of 0.5. μg/mL of human IL-1β in 0.2M sodium carbonate-bicarbonate buffer (pH 9.4) overnight at 4° C., washed with Wash Buffer, blocked with Superblock blocking buffer for 30 min at 37° C., and washed again with Wash Buffer. A mixture of biotinylated Mu007 (0.16 μg/mL final concentration) and competitor antibody (Mu007, Hu007, or Hu007 analogs starting at 100 μg/mL final concentration and serial 3-fold dilutions) in ELISA Buffer were added in triplicate in a final volume of 100 μL per well. As a no-competitor control, 100 μL of 0.16 μg/mL biotinylated Mu007 was used. As a background control, 100 gLL of ELISA Buffer was used. ELISA plates were incubated at 37° C. for 2 hr. After washing the wells with Washing Buffer, 100 μL of 1 μg/mL HRP-conjugated streptavidin (Jackson ImmunoResearch) was added to each well. ELISA plates were incubated at room temperature for 30 min and washed with Washing Buffer. For color development, 100 μL/well of ABTS substrate was added. Color development was stopped by adding 100 μL/well of 2% oxalic acid. Absorbance was read at 415 nm.
Mu007, Hu007 and Hu007 analogs competed with biotinylated Mu007 in a concentration-dependent manner. […]

human IL-1β [3] = target: T2, human IL-1β; test: BIAcore, antibody captured on anti-IgG CM5 chip, IL-1β flowed
Procedure: (§2) Affinities and specificities of both Hu007 and Mu007 were determined using BlAcore measurements. BIAcore™ is an automated biosensor system that measures molecular interactions. (Karlsson, et al. (1991) J. Immunol. Methods 145: 229-240). In these experiments antibody was immobilized at low density on a BIAcore™ chip. Ethyl-dimethylaminopropyl-carbodiimide (EDC) was used to couple reactive amino groups to purified goat anti-human IgG or goat anti-rabbit IgG to a flow cell of a carboxy-methyl (CM5) BIAcore™ sensor chip. Goat IgG was diluted in sodium acetate buffer, pH 4.0, and immobilized on a flow cell of a CM5 chip using EDC to yield 1000 response units. Unreacted sites were blocked with ehanolamine. A flow rate of 60 μL/min was used. Multiple binding/elution cycles were performed by injection a 100 μL solution of 15 μg/mL Mu007 or Hu007 followed by human IL-1β, mouse IL-1β, rat IL-1β, cynomolgus monkey IL-1β, porcine IL-1β, human IL-1 receptor antagonist, and human IL-1α at decreasing concentrations for each cycle (e.g., 1500, 750, 375, 188, 94, 47, 23.5, 12, and 0 picomolar). Elution was performed with glycine-HCl, pH 1.5. BIAevaluation™ was used to analyze the kinetic data. Table 2 depicts the affinities of Hu007 and Mu007 for human and cynomolgus IL-1β. […] Cynomolgus and porcine IL-1β had 100% binding to Hu007 relative to human IL-1β.

cynomolgus monkey IL-1β = target: T1, cynomolgus monkey IL-1β; test: as above
Procedure: as §2

human IL-1β [4] = target: T2, human IL-1β; test: competition ELISA on coated human IL-1β against biotinylated Mu007, Exp. B
Procedure: as §1
(§3) Mu007, Hu007 and Hu007 analogs competed with biotinylated Mu007 in a concentration-dependent manner. The IC₅₀ values of Mu007 and Hu007 in three independent ELISA competition experiments, obtained using the computer software Prism (GraphPad Software Inc., San Diego, Calif.) are shown in Table 1. The relative binding of Hu007 was on average 89% of Mu007.

human IL-1β [5] = target: T2, human IL-1β; test: competition ELISA on coated human IL-1β against biotinylated Mu007, Exp. C
Procedure: as §1, §3

human IL-1β [6] = target: T2, human IL-1β; test: competition ELISA on coated human IL-1β against biotinylated Mu007, Exp. A
Procedure: as §1, §3

human IL-1β [7] = target: T2, human IL-1β; test: BIAcore, antibody captured on protein A CM5 chip, human IL-1β flowed
Procedure: (§4) Affinities and specificities of several Hu007 analogs were determined using BIAcore measurements. BIAcore™ is an automated biosensor system that measures molecular interactions. (Karlsson, et al. (1991) J. Immunol. Methods 145: 229-240). In these experiments antibody was immobilized at low density on a BIAcore™ chip. Ethyl-dimethylaminopropyl-carbodiimide (EDC) was used to couple reactive amino groups to protein A to a flow cell of a carboxy-methyl (CM5) BIAcore™ sensor chip. Protein A was diluted in sodium acetate buffer, pH 4.5, and immobilized on a flow cell of a CM5 chip using EDC to yield approximately 1000 response units. Unreacted sites were blocked with ethanolamine. A flow rate of 60 μl/min was used. Multiple binding/elution cycles were performed by injection of 10 μl of a 5 μg/mL Hu007 solution, and heavy chain CDR2 analogs N55D, N55S, N55Q, G56A, and G56V, followed by human IL-1β at decreasing concentrations for each cycle (e.g. 1500, 750, 375, 188, and […]). Elution was performed with glycine-HCl, pH 1.5. BIAevaluation™ was used to analyze the kinetic data. Table 5 depicts the affinities of Hu007 and the various Hu007 analogs for human IL-1β.

human IL-1β [8] = target: T2, human IL-1β; test: cell-based or functional assay; remark: listed apart in the source
human IL-1β [9] = target: T2, human IL-1β; test: BIAcore (Example 13)
Procedure: as §4

Binder | Kd (human IL-1β [7]) [pM] | IC50, inhibition of human IL-1β stimulated proliferation (human IL-1β [8]) [Picomolar] | also measured
mouse monoclonal antibody Mu007 (antibody, V domains shown) VH: QVQLVQSGAEVKKPGASVKVSCKVSGYTFSRYWIEWVRQAPGKGLEWIGEILPGNGNINYNEKFKGKATITADTSTDTAYMELSSLRSEDTAVYYCSTIYYDYDQGFTYWGQGTLVTVSA VL: DIKMTQSPSSMYASLGERVTITCKASQDIDRYLSWFQQKPGKSPKTLIYRVKRLVDGVPSRFSGSASGQDYSLTISSLQYEDMGIYYCLQYDEFPYTFGGGTKLEIK |  |  | IC50, inhibition of IL-1β stimulated proliferation of T1165.17 cells (3H-thymidine), average of three experiments (human IL-1β [1]): 220 pM; IC50 (human IL-1β [2]): 0.4 µg/mL; Kd (human IL-1β [3]): 6.2 pM; Kd (cynomolgus monkey IL-1β): 7.3 pM; IC50 (human IL-1β [4]): 0.4 µg/mL; IC50 (human IL-1β [5]): 0.39 µg/mL; IC50 (human IL-1β [6]): 0.4 µg/mL
Hu007 analog G56V (antibody, human IgG1, kappa, V domains shown, IgG1; Heavy chain of Hu007 with G56V, co-transfected with the WT Hu007 light chain) VH: QVQLVQSGAEVKKPGASVKVSCKVSGYTFSRYWIEWVRQAPGKGLEWIGEILPGNVNINYNEKFKGKATITADTSTDTAYMELSSLRSEDTAVYYCSTIYYDYDQGFTYWGQGTLVTVSS VL: DIQMTQSPSSLSASVGDRVTITCKASQDIDRYLSWFQQKPGKAPKSLIYRVKRLVDGVPSRFSGSASGTDYTLTISSLQPEDFATYYCLQYDEFPYTFGQGTKLEIKR | 73.2 | 395 | 
Hu007 analog G56A (antibody, human IgG1, kappa, V domains shown, IgG1; Heavy chain of Hu007 with G56A, co-transfected with the WT Hu007 light chain) VH: QVQLVQSGAEVKKPGASVKVSCKVSGYTFSRYWIEWVRQAPGKGLEWIGEILPGNANINYNEKFKGKATITADTSTDTAYMELSSLRSEDTAVYYCSTIYYDYDQGFTYWGQGTLVTVSS VL: DIQMTQSPSSLSASVGDRVTITCKASQDIDRYLSWFQQKPGKAPKSLIYRVKRLVDGVPSRFSGSASGTDYTLTISSLQPEDFATYYCLQYDEFPYTFGQGTKLEIKR | 33.6 | 184 | 
Hu007 analog N55Q (antibody, human IgG1, kappa, V domains shown, IgG1; Heavy chain of Hu007 with N55Q, co-transfected with the WT Hu007 light chain) VH: QVQLVQSGAEVKKPGASVKVSCKVSGYTFSRYWIEWVRQAPGKGLEWIGEILPGQGNINYNEKFKGKATITADTSTDTAYMELSSLRSEDTAVYYCSTIYYDYDQGFTYWGQGTLVTVSS VL: DIQMTQSPSSLSASVGDRVTITCKASQDIDRYLSWFQQKPGKAPKSLIYRVKRLVDGVPSRFSGSASGTDYTLTISSLQPEDFATYYCLQYDEFPYTFGQGTKLEIKR | 257 | 2500 | 
Hu007 analog N55D (antibody, human IgG1, kappa, V domains shown, IgG1; Heavy chain of Hu007 with N55D, co-transfected with the WT Hu007 light chain; It mimics fully deamidated Hu007; also called heavy chain CDR2 analog N55D) VH: QVQLVQSGAEVKKPGASVKVSCKVSGYTFSRYWIEWVRQAPGKGLEWIGEILPGDGNINYNEKFKGKATITADTSTDTAYMELSSLRSEDTAVYYCSTIYYDYDQGFTYWGQGTLVTVSS VL: DIQMTQSPSSLSASVGDRVTITCKASQDIDRYLSWFQQKPGKAPKSLIYRVKRLVDGVPSRFSGSASGTDYTLTISSLQPEDFATYYCLQYDEFPYTFGQGTKLEIKR | 149 | 1100 | fold loss of binding affinity against Hu007 (human IL-1β [9]): ~15 fold
Hu007 analog N55S (antibody, human IgG1, kappa, V domains shown, IgG1; also called heavy chain CDR2, N55S) VH: QVQLVQSGAEVKKPGASVKVSCKVSGYTFSRYWIEWVRQAPGKGLEWIGEILPGSGNINYNEKFKGKATITADTSTDTAYMELSSLRSEDTAVYYCSTIYYDYDQGFTYWGQGTLVTVSS VL: DIQMTQSPSSLSASVGDRVTITCKASQDIDRYLSWFQQKPGKAPKSLIYRVKRLVDGVPSRFSGSASGTDYTLTISSLQPEDFATYYCLQYDEFPYTFGQGTKLEIKR | 28.1 | 184 | fold of the binding affinity of Hu007 (human IL-1β [9]): ≤ 3 fold

— patent publication US20050070692A1 (published 2005)
